# From article PMC3991606, “Targeting NAD^+ Metabolism in the Human Malaria Parasite Plasmodium falciparum” (PLoS ONE, 2014)
# T1: PfNMNAT (Plasmodium falciparum, UniProt Q8IE38)
# T1 construct: gene PF3D7_1327600
# T1 sequence (Q8IE38 1-204): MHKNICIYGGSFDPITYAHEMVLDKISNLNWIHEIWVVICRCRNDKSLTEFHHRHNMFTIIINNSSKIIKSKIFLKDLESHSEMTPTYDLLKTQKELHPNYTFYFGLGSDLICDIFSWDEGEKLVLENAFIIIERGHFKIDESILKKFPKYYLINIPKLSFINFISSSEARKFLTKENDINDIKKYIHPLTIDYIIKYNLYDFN
# B1: PfNMNAT (Plasmodium falciparum 3D7) (protein)
# chain: T1 sequence (Q8IE38 1-204)
# Columns and labels:
# [1] = molecular target: T1, PfNMNAT; experiment: pyrophosphate release assay, […] nm, […] min preincubation with inhibitor; assay type: biochemical; settings: 50 µM 1a-a versus 2% DMSO control
# [2] = substrate: O=C([O-])c1ccc[n+]([C@@H]2O[C@H](COP(=O)(O)O)[C@@H](O)[C@H]2O)c1; experiment: purified protein; assay type: biochemical, Plasmodium falciparum; settings: 500 µM ATP, 100 mM HEPES, 10 mM MgCl2, pH 7.5, apparent Km
# [3] = substrate: Nc1ncnc2c1ncn2[C@@H]1O[C@H](COP(=O)(O)OP(=O)(O)OP(=O)(O)O)[C@@H](O)[C@H]1O; experiment: purified protein; assay type: biochemical, Plasmodium falciparum; settings: 500 µM NaMN, 100 mM HEPES, 10 mM MgCl2, pH 7.5, apparent Km
Molecule,inhibition at 50 μM [1],Km [2] [µM],Km [3] [µM]
O=C(CCC(=O)Nc1ccc(Br)cc1)N/N=C/c1c2ccccc2cc2ccccc12 [1a-a],1a-a exhibits specific activity against purified his-PfNMNAT (Figure 4A),,
B1,,35.8 ± 5.1,19.9 ± 6.7
